The Human Domainome abundance scans (Beltran et al. 2025)

B1: Dystrobrevin alpha, residues 235 to 294; numbered along this chain, Q9Y4J8 (parent)
chain: ENVFHPVECSYCHSESMMGFRYRCQQCHNYQLCQDCFWRGHAGGSHSNQHQMKEYTSWKS

Variants of: B1
Experiment: abundance fitness (aPCA) (normalised: wild type 0, dead -1); higher = more abundant; growth selection in yeast, the domain comes from the species named
Conditions: Homo sapiens

Abundance fitness, by site and new letter:
C27: F -0.434 | K -0.745 | A -0.727 | E -0.717 | H -0.814 | D -0.667
Q26: A 0.006 | M -0.355 | E -0.058 | W -0.498 | T 0.012 | N 0.022 | G -0.277 | R -0.232 | P -0.545 | S -0.024 | K -0.288 | D 0.341 | C -0.301 | F -0.283 | H -0.315 | I 0.011 | L -0.287 | V 0.273
M18: L 0.09 | S 0.133 | P 0.116 | Q 0.156 | A 0.199 | F 0.126 | K 0.029 | Y 0.075 | V 0.155 | D 0.129 | G 0.064 | T 0.075 | N 0.101 | C -0.189 | W -0.266 | E 0.103 | I -0.021 | H 0.163 | R 0.111
R23: C 0.176 | D -0.022 | T -0.008 | Q 0.034 | G -0.158 | Y -0.138 | L 0.002 | H 0.201 | S 0.066 | I -0.05 | F -0.034 | K 0.147 | A -0.049 | M 0.006 | V 0.074 | W -0.276 | P -0.509 | E 0.03
R21: W -0.02 | M 0.063 | D -0.436 | L 0.058 | V -0.207 | T 0.088 | K 0.047 | G -0.15 | F -0.188 | A -0.02 | Y -0.394 | C -0.092 | H 0.165 | S 0.138 | I -0.128 | E -0.07
Q25: Y -0.327 | L -0.026 | F -0.325 | W -0.662 | S -0.159 | T -0.004 | C -0.102 | D -0.117 | M 0.061 | V 0.019 | P -0.426 | R -0.158 | N -0.128 | H -0.193 | K -0.003 | E 0.078 | A -0.213 | I -0.208 | G -0.202
C24: S -0.851 | V -0.838 | K -0.928 | L -0.911 | G -0.736 | F -1.04 | D -0.441 | E -0.615 | R -0.97 | Y -0.935 | H -0.887 | M -0.731 | I -0.822 | T -0.752 | P -1.08 | N -0.691 | Q -0.561 | W -1.07
M17: Y -0.183 | W -0.084
F20: H 0.151 | I 0.061 | A 0.224 | G 0.163 | M -0.004 | Y 0.045 | D 0.106 | T 0.15 | P 0.307 | W 0.137 | N 0.217 | K 0.31 | C 0.14 | Q 0.134 | S 0.237 | V 0.104
G19: V -0.13 | F -0.219 | P 0.018 | H 0.003 | N -0.027 | D -0.046 | A 0.176 | S 0.089 | E -0.103 | K 0.129 | M -0.167 | Y -0.248 | Q 0.046 | T -0.147 | C -0.191 | I -0.256 | L -0.134
Y22: S -0.405 | W -0.086 | E -0.675 | I -0.337 | D -0.814 | H -0.053 | N -0.364 | T -0.437 | L -0.3 | C -0.409 | G -0.658 | P -0.904 | Q -0.754 | M -0.142 | V -0.051 | A -0.13 | K -0.263 | R -0.241
